The record followed here is patent publication US20180214548A1 (SHANGHAI YUNYI HEALTHCARE AND TECHNOLOGY, published 2018).

Experiment [1] deals with T1, full length human PD-1 on cells (human, UniProt Q15116 25-288).
T1 construct: Also used here for PD-1 on human T cells/PBMC; also called CHO-K1-hPD-1; hPD-1
As to the kind of experiment: cell-based receptor ligand blocking assay (fully human antibodies), blocked ligand PD-L1.

For experiment [2], the target named is T2, human PD-1^ECD-hFc protein (Immunogen A) (human, UniProt Q15116 25-167).
T2 construct: Biotinylated for the Octet assay; also called PD-1-hFc; hPD-1^ECD-hFc; not shown: human IgG Fc fragment (hFc)
Kind of experiment: protein-based receptor ligand blocking assay (fully human antibodies), blocked ligand PD-L1. As for the experimental part:
Purified PD-1^ECD-hFc (Example 2) was diluted with PBS to a final concentration of 1.0 ug/mL, and 100 uL diluted PD-1^ECD-hFc were added to each well of a 96-well plate that was then sealed with plastic film and incubated at 4° C. overnight. The plate was washed twice with wash buffer (PBS+0.01% (v/v) Tween 20) and incubated with blocking buffer (PBS+[…]) at room temperature for 2 hours. The blocking buffer was aspirated, and 50 uL purified anti-PD-1 antibodies from Example 2 were added to each well of 96-well plate. […] The plate was washed three times with wash buffer (PBS+0.01% (v/v) Tween 20). 100 uL HRP-conjugated streptavidin (Sigma) were then added to each well and incubated at 37° C. for 2 hours. The plate was then washed three times with wash buffer, and 100 uL TMB substrate were added to each well. After 30 minutes of incubation at room temperature, the reaction was stopped by adding 100 uL stop solution (0.1N HCl). The absorbance at OD450 nm was measured with an ELISA plate reader (384plus SpectraMax, Molecular Devices).

A further experiment addresses T3, ICOS (human, UniProt Q9Y6W8 21-140, limits assumed).
T3 sequence (looked up): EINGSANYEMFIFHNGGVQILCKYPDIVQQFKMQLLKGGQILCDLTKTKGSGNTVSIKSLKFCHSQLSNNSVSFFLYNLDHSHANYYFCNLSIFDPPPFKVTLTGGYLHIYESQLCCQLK
As to the kind of experiment: ELISA on coated protein (Table 22). (In an ELISA, binding on a coated surface is turned into a signal by an enzyme label.)

The target in another experiment is T4, B7-1 (human, UniProt P33681 35-242).
T4 sequence (looked up): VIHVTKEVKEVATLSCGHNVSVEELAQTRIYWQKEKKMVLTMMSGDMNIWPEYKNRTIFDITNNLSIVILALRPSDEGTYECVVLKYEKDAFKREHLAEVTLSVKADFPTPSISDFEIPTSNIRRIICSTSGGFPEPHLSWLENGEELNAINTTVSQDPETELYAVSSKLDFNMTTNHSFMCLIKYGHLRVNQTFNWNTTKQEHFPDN
Kind of experiment: ELISA on coated protein (Table 22).

The next experiment deals with T5, CTLA4 (human, UniProt P16410 37-162, limits assumed).
T5 sequence (looked up): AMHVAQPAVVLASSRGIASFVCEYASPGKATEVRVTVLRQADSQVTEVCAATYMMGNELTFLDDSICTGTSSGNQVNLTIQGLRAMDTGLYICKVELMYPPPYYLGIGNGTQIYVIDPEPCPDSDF
Kind of experiment: ELISA on coated protein (Table 22).

Experiment [3] has as its target T2, human PD-1^ECD-hFc protein (Immunogen A). Kind of experiment: protein-based receptor ligand blocking assay (fully human antibodies), blocked ligand PD-L2.

T2 sequence (Q15116 25-167): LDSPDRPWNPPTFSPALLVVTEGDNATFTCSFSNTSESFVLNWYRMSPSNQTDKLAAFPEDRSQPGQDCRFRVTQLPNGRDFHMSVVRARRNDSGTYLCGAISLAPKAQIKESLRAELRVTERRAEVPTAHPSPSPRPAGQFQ
T1 sequence (Q15116 25-288 limits assumed): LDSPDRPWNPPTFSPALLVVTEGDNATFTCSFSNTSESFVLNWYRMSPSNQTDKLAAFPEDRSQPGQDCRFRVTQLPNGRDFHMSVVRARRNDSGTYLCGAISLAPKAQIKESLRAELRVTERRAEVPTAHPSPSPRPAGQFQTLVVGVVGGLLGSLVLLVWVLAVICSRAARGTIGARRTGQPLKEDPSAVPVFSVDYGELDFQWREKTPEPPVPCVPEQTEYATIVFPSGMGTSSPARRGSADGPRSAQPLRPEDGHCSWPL

B1: fully human anti-PD-1 antibody 21G8F11 (antibody, human IgG4 S228P, kappa, V domains shown)
VH: EVQLLESGGGLAQPGGSLRLSCAASGFSFNTYLMHWVRQAPGKGLEWVSAISGGGGNTYYADSVKGRFTISRDNSKNTLYLQMNSLRAEDTAVYYCAKENRIPVAPFDYWGQGTLVTVSS
VL: DIQMTQSPSTLSASVGDRVTITCRASQSISTWLAWYQQKPGKAPKLLIYKASSLESGVPSRFSGSGSGTEFTLTISSLQPDDLATYYCQQYNSFSWTFGQGTKVEIKR
notes: also called 21G8F11 (fully human, IgG4 S228P / kappa)
As to B1, the “IC50 (read off the curve)” value in experiment [1] is around 5 nM; in experiment [2], around 1 nM; in experiment [3] it was around 1 nM. Also, the binding result with ICOS, with B7-1 and with CTLA4 was “no binding” each time.
